Key:
Experiment in all cases: cell-based or functional assay
[1] = molecular target: HIV-1 Env of pseudovirus 1006_11_C3_1601 (HIV-1)
[2] = molecular target: HIV-1 Env of pseudovirus 1054_07_TC4_1499 (HIV-1)
[3] = molecular target: HIV-1 Env of pseudovirus 1394C9G1(Rev-) (HIV-1)
[4] = molecular target: HIV-1 Env of pseudovirus 191084 B7-19 (HIV-1)
[5] = molecular target: HIV-1 Env of pseudovirus 191955_A11 (HIV-1)
[6] = molecular target: HIV-1 Env of pseudovirus 235-47 (HIV-1)
[7] = molecular target: HIV-1 Env of pseudovirus 249M B10 (HIV-1)
[8] = molecular target: HIV-1 Env of pseudovirus 3016.v5.c45 (HIV-1)
[9] = molecular target: HIV-1 Env of pseudovirus 62357_14_D3_4589 (HIV-1)
[10] = molecular target: HIV-1 Env of pseudovirus 6244_13_B5_4576 (HIV-1)
[11] = molecular target: HIV-1 Env of pseudovirus 6535.3 (HIV-1)
[12] = molecular target: HIV-1 Env of pseudovirus 7030102001E5(Rev-) (HIV-1)
[13] = molecular target: HIV-1 Env of pseudovirus A07412M1.vrc12 (HIV-1)
[14] = molecular target: HIV-1 Env of pseudovirus BF1266.431a (HIV-1)
[15] = molecular target: HIV-1 Env of pseudovirus BJOX009000.02.4 (HIV-1)
[16] = molecular target: HIV-1 Env of pseudovirus C2101.c01 (HIV-1)
[17] = molecular target: HIV-1 Env of pseudovirus C4118.c09 (HIV-1)
[18] = molecular target: HIV-1 Env of pseudovirus CAP45.2.00.G3 (HIV-1)
[19] = molecular target: HIV-1 Env of pseudovirus CNE17 (HIV-1)
[20] = molecular target: HIV-1 Env of pseudovirus CNE30 (HIV-1)
[21] = molecular target: HIV-1 Env of pseudovirus CNE58 (HIV-1)
[22] = molecular target: HIV-1 Env of pseudovirus Ce1172_H1 (HIV-1)
[23] = molecular target: HIV-1 Env of pseudovirus Ce2060_G9 (HIV-1)
[24] = molecular target: HIV-1 Env of pseudovirus Ce704809221_1B3 (HIV-1)
[25] = molecular target: HIV-1 Env of pseudovirus Du172.17 (HIV-1)
[26] = molecular target: HIV-1 Env of pseudovirus HIV-16845-2.22 (HIV-1)
[27] = molecular target: HIV-1 Env of pseudovirus Q259.d2.17 (HIV-1)
[28] = molecular target: HIV-1 Env of pseudovirus QH0692.42 (HIV-1)
[29] = molecular target: HIV-1 Env of pseudovirus R1166.c01 (HIV-1)
[30] = molecular target: HIV-1 Env of pseudovirus R3265.c06 (HIV-1)
[31] = molecular target: HIV-1 Env of pseudovirus RHPA4259.7 (HIV-1)
[32] = molecular target: HIV-1 Env of pseudovirus T250-4 (HIV-1)
[33] = molecular target: HIV-1 Env of pseudovirus TRO.11 (HIV-1)
[34] = molecular target: HIV-1 Env of pseudovirus WEAU_d15_410_787 (HIV-1)
[35] = molecular target: HIV-1 Env of pseudovirus WITO4160.33 (HIV-1)
[36] = molecular target: HIV-1 Env of pseudovirus X2088_c9 (HIV-1)
[37] = molecular target: HIV-1 Env of pseudovirus 0815.v3.c3 (HIV-1)

Substance: 8ANC195 (antibody)
- neutralization IC50 [1]: 0.43 µg/mL
- neutralization IC80 [1]: 1.98 µg/mL
- neutralization IC50 [2]: 1.02 µg/mL
- neutralization IC80 [2]: 6.75 µg/mL
- neutralization IC50 [3]: > 50 µg/mL
- neutralization IC80 [3]: > 50 µg/mL
- neutralization IC50 [4]: > 50 µg/mL
- neutralization IC80 [4]: > 50 µg/mL
- neutralization IC50 [5]: > 50 µg/mL
- neutralization IC80 [5]: > 50 µg/mL
- IC50, titer in TZM.bl cells [6]: > 50 µg/mL
- IC80, titer in TZM.bl cells [6]: > 50 µg/mL
- neutralization IC50 [7]: > 50 µg/mL
- neutralization IC80 [7]: > 50 µg/mL
- IC50, titer in TZM.bl cells [8]: 0.87 µg/mL
- IC80, titer in TZM.bl cells [8]: > 50 µg/mL
- neutralization IC50 [9]: > 50 µg/mL
- neutralization IC80 [9]: > 50 µg/mL
- neutralization IC50 [10]: > 50 µg/mL
- neutralization IC80 [10]: > 50 µg/mL
- neutralization IC50 [11]: 0.2 µg/mL
- neutralization IC80 [11]: 0.91 µg/mL
- neutralization IC50 [12]: 0.86 µg/mL
- neutralization IC80 [12]: 8.32 µg/mL
- IC50, titer in TZM.bl cells [13]: 2.25 µg/mL
- IC80, titer in TZM.bl cells [13]: 7.49 µg/mL
- neutralization IC50 [14]: > 50 µg/mL
- neutralization IC80 [14]: > 50 µg/mL
- IC50, titer in TZM.bl cells [15]: 0.64 µg/mL
- IC80, titer in TZM.bl cells [15]: 3.09 µg/mL
- IC50, titer in TZM.bl cells [16]: 0.48 µg/mL
- IC80, titer in TZM.bl cells [16]: 3.54 µg/mL
- IC50, titer in TZM.bl cells [17]: 0.2 µg/mL
- IC80, titer in TZM.bl cells [17]: 0.71 µg/mL
- neutralization IC50 [18]: 28.3 µg/mL
- neutralization IC80 [18]: > 50 µg/mL
- neutralization IC50 [19]: 2.59 µg/mL
- neutralization IC80 [19]: 11.1 µg/mL
- neutralization IC50 [20]: 7.52 µg/mL
- neutralization IC80 [20]: 40.5 µg/mL
- neutralization IC50 [21]: > 50 µg/mL
- neutralization IC80 [21]: > 50 µg/mL
- neutralization IC50 [22]: 42.3 µg/mL
- neutralization IC80 [22]: > 50 µg/mL
- neutralization IC50 [23]: 6.2 µg/mL
- neutralization IC80 [23]: > 50 µg/mL
- neutralization IC50 [24]: 0.48 µg/mL
- neutralization IC80 [24]: 3.52 µg/mL
- neutralization IC50 [25]: > 30 µg/mL
- neutralization IC80 [25]: > 30 µg/mL
- neutralization IC50 [26]: 3.3 µg/mL
- neutralization IC80 [26]: 20.1 µg/mL
- neutralization IC50 [27]: > 50 µg/mL
- neutralization IC80 [27]: > 50 µg/mL
- neutralization IC50 [28]: 2.71 µg/mL
- neutralization IC80 [28]: 17.1 µg/mL
- IC50, titer in TZM.bl cells [29]: 4.83 µg/mL
- IC80, titer in TZM.bl cells [29]: 4.83 µg/mL
- IC50, titer in TZM.bl cells [30]: 50 µg/mL
- IC80, titer in TZM.bl cells [30]: > 50 µg/mL
- neutralization IC50 [31]: 0.34 µg/mL
- neutralization IC80 [31]: 1.56 µg/mL
- IC50, titer in TZM.bl cells [32]: > 50 µg/mL
- IC80, titer in TZM.bl cells [32]: > 50 µg/mL
- neutralization IC50 [33]: 0.18 µg/mL
- neutralization IC80 [33]: 0.89 µg/mL
- neutralization IC50 [34]: > 50 µg/mL
- neutralization IC80 [34]: > 50 µg/mL
- neutralization IC50 [35]: > 50 µg/mL
- neutralization IC80 [35]: > 50 µg/mL
- IC50, titer in TZM.bl cells [36]: > 50 µg/mL
- IC80, titer in TZM.bl cells [36]: > 50 µg/mL

Substance: VRC01 (antibody)
- IC50, titer in TZM.bl cells [37]: 0.06 µg/mL
- IC80, titer in TZM.bl cells [37]: 0.13 µg/mL
- IC50, titer in TZM.bl cells [1]: 0.15 µg/mL
- IC80, titer in TZM.bl cells [1]: 0.39 µg/mL
- IC50, titer in TZM.bl cells [2]: 0.71 µg/mL
- IC80, titer in TZM.bl cells [2]: 2.85 µg/mL
- IC50, titer in TZM.bl cells [6]: 0.04 µg/mL
- IC80, titer in TZM.bl cells [6]: 0.17 µg/mL
- IC50, titer in TZM.bl cells [7]: 0.13 µg/mL
- IC80, titer in TZM.bl cells [7]: 0.46 µg/mL
- IC50, titer in TZM.bl cells [8]: 0.16 µg/mL
- IC80, titer in TZM.bl cells [8]: 0.42 µg/mL
- IC50, titer in TZM.bl cells [9]: 0.96 µg/mL
- IC80, titer in TZM.bl cells [9]: 4.68 µg/mL
- IC50, titer in TZM.bl cells [10]: 0.21 µg/mL
- IC80, titer in TZM.bl cells [10]: 0.53 µg/mL
- IC50, titer in TZM.bl cells [11]: 0.54 µg/mL
- IC80, titer in TZM.bl cells [11]: 2.7 µg/mL
- IC50, titer in TZM.bl cells [12]: 0.54 µg/mL
- IC80, titer in TZM.bl cells [12]: 2.08 µg/mL
- IC50, titer in TZM.bl cells [14]: 0.07 µg/mL
- IC80, titer in TZM.bl cells [14]: 0.23 µg/mL
- IC50, titer in TZM.bl cells [16]: 0.36 µg/mL
- IC80, titer in TZM.bl cells [16]: 1.17 µg/mL
- IC80, titer in TZM.bl cells [18]: > 50 µg/mL
- IC50, titer in TZM.bl cells [22]: > 10 µg/mL
- IC80, titer in TZM.bl cells [22]: > 10 µg/mL
- IC50, titer in TZM.bl cells [23]: 0.29 µg/mL
- IC80, titer in TZM.bl cells [23]: 1.48 µg/mL
- IC50, titer in TZM.bl cells [24]: 0.55 µg/mL
- IC80, titer in TZM.bl cells [24]: 2.05 µg/mL
- IC50, titer in TZM.bl cells [25]: > 50 µg/mL
- IC80, titer in TZM.bl cells [25]: > 50 µg/mL
- IC50, titer in TZM.bl cells [26]: 2.8 µg/mL
- IC80, titer in TZM.bl cells [26]: 12.7 µg/mL
- IC50, titer in TZM.bl cells [27]: 0.17 µg/mL
- IC80, titer in TZM.bl cells [27]: 0.54 µg/mL
- IC50, titer in TZM.bl cells [28]: 1.5 µg/mL
- IC80, titer in TZM.bl cells [28]: 4.8 µg/mL
- IC50, titer in TZM.bl cells [29]: 1.7 µg/mL
- IC80, titer in TZM.bl cells [29]: 4.58 µg/mL
- IC50, titer in TZM.bl cells [30]: 0.45 µg/mL
- IC80, titer in TZM.bl cells [30]: 1.88 µg/mL
- IC50, titer in TZM.bl cells [31]: 0.06 µg/mL
- IC80, titer in TZM.bl cells [31]: 0.185 µg/mL
- IC50, titer in TZM.bl cells [32]: > 50 µg/mL
- IC80, titer in TZM.bl cells [32]: > 50 µg/mL
- IC50, titer in TZM.bl cells [33]: 0.21 µg/mL
- IC80, titer in TZM.bl cells [33]: 0.83 µg/mL
- IC50, titer in TZM.bl cells [34]: 0.12 µg/mL
- IC80, titer in TZM.bl cells [34]: 0.26 µg/mL
- IC50, titer in TZM.bl cells [35]: 0.15 µg/mL
- IC80, titer in TZM.bl cells [35]: 0.41 µg/mL
- IC50, titer in TZM.bl cells [36]: > 50 µg/mL
- IC80, titer in TZM.bl cells [36]: > 50 µg/mL

— patent publication US20230002480A1
